Here are results for two molecules from PMC7396694, “Two MarR-Type Repressors Balance Precursor Uptake and Glycine Betaine Synthesis in Bacillus subtilis to Provide Cytoprotection Against Sustained Osmotic Stress” (Frontiers in Microbiology, 2020).

The target in series [1] is T1, GbsR-Strep-tag II (Bacillus subtilis JH642) (UniProt P71015).
T1 sequence: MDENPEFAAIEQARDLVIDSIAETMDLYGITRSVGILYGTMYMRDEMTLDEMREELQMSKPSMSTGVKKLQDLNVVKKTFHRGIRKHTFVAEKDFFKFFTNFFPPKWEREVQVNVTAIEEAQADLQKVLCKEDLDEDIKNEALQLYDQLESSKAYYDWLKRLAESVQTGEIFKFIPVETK
The series is described as follows: EMSA. The following applies: 10 mM Tris pH 8, 150 ug/ml herring sperm DNA, 7.5% glycerol, 1 pmol DNA in 20 ul, 20 min at 25 C; native 8% polyacrylamide gel. Background: Mobility shift assays separate free from complexed probe on a gel.

Series [2] concerns the molecule itself. The experiment in a line: SEC; HiLoad 16/600 Superdex 200 pg; 2 ml protein solution (1 mg/ml) loaded immediately after affinity purification; 100 mM potassium phosphate (pH 8), 300 mM NaCl; column standardised with thyroglobulin, albumin, ovalbumin, cytochrome C. In general terms: SEC sorts molecules by how far they enter the pores of the column.

Turning to “GGGACTTTGACAGTTTAAAAACCATATGTTAGATTAAGGTTGTTAAAAACATTAAATTTTTATTTAACAAACTTTATTTACGTCAAGGAGGCTTAT (double strand) [gbsA fragment with GbsR operator]”, the binding result in series [1] was “binds”.

B1: GbsR-Strep-tag II recombinant protein (natural protein, Bacillus subtilis, UniProt P71015 1-180, looked up)
chain: T1 sequence
notes: GbsR, choline-responsive MarR-type repressor of Bacillus subtilis; coding region of gbsR amplified from chromosomal DNA of B. subtilis JH642; also called GbsR repressor; not shown: Strep-tag II, C-terminal, kept
For the molecule B1, the “stoichiometry N” value in series [2] was determined as 2.

One may read the stoichiometry N as a count of units in the complex or per binding partner.
